According to patent US9527913B2, “Humanized pan-HER antibody compositions” (Symphogen A/S, priority 2012, dated 2016):

B1: antibody 11006: humanized anti-HER3 antibody from chimeric parent 5082; HC SEQ ID NO: 58, LC SEQ ID NO: 59 (antibody, V domains shown)
VH: QVQLQESGPGLVKPSQTLSLTCTVSGYSITSAYYWNWIRQHPGKGVEWMGYIGYSGRNTYNPSLKNRVTISRDTSKNQFSLKLSSVTAADTAVYYCSREGDYGYSDYWGQGTLVTVSS
VL: DIQMTQSPSSLSASVGDRVTVTCRASQDTNNYLNWYQQKPGKAVKLLIYYTSRLQSGVPSRFSGSGSGTDFTLTISSLQPEDFATYFCQQSETLPWTFGQGTKVEIK
B2: antibody 4517: chimeric parent anti-HER2 antibody disclosed in WO 2012/059857; VH SEQ ID NO: 27, light chain SEQ ID NO: 29 (antibody)
VH: EVQLVESGGDLVKPGGSLKLSCAASGFTFSSYGMSWVRLTPDKRLEWVATISGGGSYTYYPDSVKGRFTISRDIAKSTLYLQMSSLKSEDTAVYYCARKGNYGNYGKLAYWGQGTSVTVS
light: DIQMTQSPASLSVSVGETVTITCRASENIYSNLAWYQQEQGKSPQLLVYAATNLADGVPSRFSGSGSGTQYSLKINSLQSEDFGSYYCQHFWGTPWTFGGGTKLEIKRTVAAPSVFIFPPSDEQLKSGTASVVCLLNNFYPREAKVQWKVDNALQSGNSQESVTEQDSKDSTYSLSSTLTLSKADYEKHKVYACEVTHQGLSSPVTKSFNRGEC

What was measured:
[1] = test system: A431NS, H358, FaDu, OE19, BT474, MDA-MB-175 VII, MCF-7, N87, HN5, MFE-280 cancer cell lines; experiment: Viability assay (WST-1) of humanized variants with partner antibody and of six-antibody mixtures; format: cell-based, human; settings: two cell lines per variant, 96 hours
Experimental: Each humanized variant was tested in two cell lines and compared to the parental mixture of two chimeric antibodies and to a negative control antibody. […] In addition, a combination of six humanized variants (11294, 11302, 11249, 11145, 10738 and 11052; Humanized Pan-HER) was tested in a number of cell lines and compared to the combination of the six chimeric antibodies (1277, 1565, 4384, 4517, 5038 and 5082; Chimeric Pan-HER). The cell lines used, N87 gastric, FaDu head and neck, A431NS epidermoid, OE19 esophageal, HN5 head and neck, MDA-MB-175 VII breast and MFE-280 endometrial cancer, were selected on the basis of their previously determined dependency on the HER family receptors.
Prior to performing the viability assay the appropriate antibodies and antibody mixtures were diluted to a final total antibody concentration of 100 μg/ml in appropriate media supplemented with 0.5-2% FBS and 1% P/S (penicillin/streptomycin), yielding a final total antibody concentration of 50 μg/ml in the well containing the highest antibody concentration. A threefold serial dilution of the antibodies was then performed in a 384-well plate, followed by addition of relevant numbers of cells to the experimental wells. The MCF-7 cells were also stimulated with 1 nM heregulin beta. The plates were incubated for 4 days in a humidified incubator at 37° C. WST-1 reagent (Roche Applied Science, Mannheim, Germany) was added to the plates and the plates were incubated for 1-3 h at 37° C. Plates were transferred to an orbital plate shaker for one h and the absorbance was measured at 450 and 620 nm (reference wavelength) using an ELISA reader. The percentage of metabolically active cells (MAC) is calculated as a percentage of the untreated control as follows: […]

[2] = test system: cynomolgus HER3; experiment: Kinetic binding analysis by surface plasmon resonance (ProteOn XPR36, IgG capture); settings: Cynomolgus antigen
Experimental: (§1) Kinetic binding analysis of the purified humanized variants was performed on a ProteOn™ XPR36 biosensor (BioRad, USA) employing an IgG capture assay as described by Canziani et al. (Anal. Biochem. (2004) 325:301-307) that allows for measurement of antibody affinities of whole IgG molecules against soluble antigen under monovalent conditions. Briefly, approximately 5000 resonance units (RU) of a monoclonal mouse anti-human IgG Fc antibody (GE Healthcare, Denmark) was conjugated to a GLC chip surface (BioRad, USA) according to the manufacturer's instructions, followed by capture of individual antibodies of the invention or a negative control on the anti-Fc sensor surface. […] Next, 250 μl monovalent antigen (Sino Biologicals) was injected at a flow rate of 50 μl/min in serial threefold dilutions from 100 nM stock to generate response curves. The chip surface was regenerated between cycles by stripping the captured antibody/antigen complexes off the surface with a 10-second injection of 3 M MgCl2 (GE Healthcare, Denmark) repeated three times. Finally, binding responses were fitted to a Langmuir 1:1 binding model for calculation of the on-rate (kon or ka), off-rate (koff or kd) and affinity (KD) constants using double referencing.

[3] = target: T1, human HER3 (Homo sapiens, UniProt P21860); experiment: as above; settings: Human antigen
T1 construct: against soluble antigen under monovalent conditions; purchased Sino Biologicals
Experimental: as §1

[4] = test system: EGFR, HER2 and HER3 from humans, cynomolgus monkeys and mice, human and murine HER4; experiment: Cross-reactivity ELISA with coated antigens; format: binding, mouse; settings: OD at 450 nm, 40 nM antibody, compared to chimeric parent
Experimental: Antibody-antigen binding was measured by ELISA with coated antigens. Human antigens were obtained from Sino Biologicals. All other antigens were produced in-house by transient expression in CHO or HEK293 cells. Chimeric and humanized antibodies, as well as an isotype control antibody, were incubated with the coated antigens at different concentrations. After wash, bound antibodies were detected by HRP-(horse radish peroxidase)-conjugated secondary antibodies. The OD signal from 40 nM antibody, measured at 450 nm using an ELISA reader, was scored from negative (−; OD<0.1) to strongly positive (+++; OD>2.5).

[5] = test system: human or cynomolgus antigen (EGFR, HER2 or HER3); experiment: Off-rate ranking of library hits (Octet QK384, Protein G biosensors); format: binding; settings: expression supernatant, antigen at 200 nM, dissociation 20 min
Experimental: Approximately 100 hits from each library that yielded an OD signal similar to or higher than that of the chimeric parent antibody were subjected to off-rate ranking using an Octet® QK384 instrument (Fortebio, Menlo Park, Calif.). Protein G biosensors (Fortebio) were used for capturing of antibody from 40 μl of expression supernatant followed by incubation with human or cynomolgus antigen at 200 nM. Human antigens were obtained from Sino Biologicals and cynomolgus antigens were produced in-house by transient expression in CHO or HEK293 cells (Koefoed et al. (2011) mAbs, 3:6, 1-12). Subsequently, the biosensors were incubated in PBS and the dissociation of antigen was recorded for 20 min to allow for a reliable determination of the dissociation rates. The responses were globally fitted to a Langmuir 1:1 binding model for calculation of dissociation constants.

[6] = target: cynomolgus HER2; experiment: Kinetic binding analysis by surface plasmon resonance (ProteOn XPR36, IgG capture); settings: Cynomolgus antigen
Experimental: as §1

[7] = target: T2, human HER2 (Homo sapiens, UniProt P04626); experiment: as above; settings: Human antigen
T2 construct: against soluble antigen under monovalent conditions; purchased Sino Biologicals
Experimental: as §1

Molecule | anti-proliferative effect in combination with partner antibody, compared to mixture of the two chimeric parent antibodies [1] | ka [2] | kd [2] | ka [3] | kd [3] | KD (estimated) ([3]; KD could not be determined due to a very slow off-rate) | cross-reactivity pattern with HER family antigens [4] | dissociation rate (off-rate ranking) compared to parent antibody [5] | Kd [6] | ka [6] | kd [6] | ka [7] | kd [7]
B1 | highly similar anti-proliferative effects | 1.5e+06 M⁻¹ s⁻¹ | 8.7e-05 s⁻¹ | 740000 M⁻¹ s⁻¹ | <2e-06 s⁻¹ | *KD could not be determined due to a very slow off-rate. Estimated to be in the picomolar range. | binding to the same human and cynomolgus antigen combined with lack of binding to the mouse antigen or to other EGFR family receptors | improved dissociation rate |  |  |  |  | 
B2 |  |  |  |  |  |  |  |  | 3.7 nM | 230000 M⁻¹ s⁻¹ | 0.00086 s⁻¹ | 260000 M⁻¹ s⁻¹ | 0.00029 s⁻¹
